Experiments:
[1] = target: P84S variant of the truncated E. coli SPase (Δ2-75) (Escherichia coli) (UniProt P00803); test: steady-state binding by increase of arylomycin fluorescence (ex 320 nm, em 410 nm); truncated SPase in n-octyl-β-glucopyranoside micelles
[2] = target: P84S variant of the truncated E. coli SPase (Δ2-75) (Escherichia coli) (UniProt P00803); test: steady-state increase of arylomycin fluorescence (ex 320 nm, em 410 nm) on binding the soluble N-terminally truncated (delta 2-75) E. coli SPase P84S
[3] = target: full-length wild type S. aureus SPase (His6x-tagged SpsB) (Staphylococcus aureus); test: steady-state binding by increase of arylomycin fluorescence; full-length His-tagged S. aureus SPase, buffer with 10% glycerol
[4] = target: full-length P29S mutant of S. aureus SPase (His6x-tagged SpsB(P29S)) (Staphylococcus aureus); test: as above
[5] = target: full-length wild type S. aureus SPase (His6x-tagged SpsB) (Staphylococcus aureus); test: steady-state increase of arylomycin fluorescence (ex 320 nm, em 410 nm) on binding full-length wild type S. aureus SPase
[6] = target: full-length P29S mutant of S. aureus SPase (His6x-tagged SpsB(P29S)) (Staphylococcus aureus); test: steady-state increase of arylomycin fluorescence (ex 320 nm, em 410 nm) on binding full-length S. aureus SPase P29S

arylomycin C16 (peptide)
Kd [1]: 39 nM
EC50 (read off the curve) [2]: 90 nM
Kd [3]: 1280 nM
Kd [4]: 130 nM
EC50 (read off the curve) [5]: 2000 nM
EC50 (read off the curve) [6]: 200 nM

Source: patent publication US20160297851A1, “BROAD SPECTRUM […]” (priority 2012, published 2016)
